This note sets out measurements from patent US8932825B2.

The target in this assay is Kringle 3 domain of human plasminogen (K3) with a C-terminal hexa-histidine tag, made in P. pastoris (human) (UniProt P00747).

Regarding “beta 1,4-galactosyltransferase from bovine milk (from UniProt P08037) (enzyme)”, the increase in mass by MALDI-TOF mass spectrometry of the protein and of its released N-glycans came out at 325 Da.
